One assay has as its target T1, Human FGFR1-IIIc D3-His6 (human, UniProt P11362 254-376).
T1 construct: also called D3 domain; F3FR1c-D3
T1 sequence: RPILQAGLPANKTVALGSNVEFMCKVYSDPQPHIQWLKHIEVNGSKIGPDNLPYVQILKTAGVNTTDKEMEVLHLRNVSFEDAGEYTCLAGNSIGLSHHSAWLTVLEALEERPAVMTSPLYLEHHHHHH
The assay is described as follows: SPR (NBD indicates no binding detected).

Assay [1] has as its target T2, FGFR1 D2 point mutant K48A (human, UniProt P11362 22-254).
T2 chain: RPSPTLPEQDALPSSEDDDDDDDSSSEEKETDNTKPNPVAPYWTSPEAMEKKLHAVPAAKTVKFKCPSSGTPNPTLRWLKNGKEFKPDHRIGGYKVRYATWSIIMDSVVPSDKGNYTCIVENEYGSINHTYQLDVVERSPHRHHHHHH
Put plainly: SPR; free energy change relative to wild-type D2. On the procedure: (§1) Binding affinities of anti-FGFR1 antibodies to FGFR1 were measured by Surface Plasmon Resonance (SPR) using a GE Healthcare BIAcore 4000 instrument as follows. Goat anti-human Fc antibody (Jackson ImmunoResearch Laboratories #109-005-098) was first immobilized on BIAcore carboxymethylated dextran CM5 chip using direct coupling to free amino groups following the procedure described by the manufacturer. Antibodies were then captured on the CM5 biosensor chip to achieve approximately 200 response units (RU). Binding measurements were performed using the running HBS-EP+ buffer. A 2-fold dilution series of His-tagged FGFR1 proteins were injected at a flow rate of 30 μl/min at 25° C. Association rates (kₒₙ, per mol/s) and dissociation rates (koff, per s) were calculated using a simple 1:1 Langmuir binding model (Biacore 4000 Evaluation Software). The equilibrium dissociation constant (KD, mol) was calculated as the ratio of koff/kₒₙ.
(§2) To obtain a finer, residue-level mapping of the epitope and to complement the HD exchange data, molecular modelling and manual inspection of the crystal structure of FGFR1 [(Beenken et al. 2012); PDB record 3OJV] was used to select solvent exposed residues within and around the epitope identified by HD exchange. The selected residues were mutated either to alanine (large to small) or to glycine if the selected residue was alanine. In total 35 point mutants were designed, expressed and purified in HEK cells, and tested for binding to mAb #A08 using surface plasmon resonance as described in Example 1.8. The affinity of the antibody for wild-type and each mutant was determined and used to calculate the contribution of each epitope residue to the binding energy.
(§3) Variant were compared to wild-type D2. The change in the Gibbs free energy of binding of mutant relative to the wild-type D2 construct (ΔΔGₘᵤₜ) was derived from the ratio of the wild-type and mutant KD.
(Surface plasmon resonance follows binding to a sensor surface in real time, without labels.)

For assay [2], the target named is T3, FGFR1 D2 point mutant H54A (human, UniProt P11362 22-254).
T3 chain: T2 chain with A48K, H54A
The assay is described as follows: SPR; free energy change relative to wild-type D2. On the procedure:
as §1, §2, §3

The target of assay [3] is T4, FGFR1 D2 point mutant A58G (human, UniProt P11362 22-254).
T4 chain: T2 chain with A48K, A58G
The assay is described as follows: SPR; free energy change relative to wild-type D2. The protocol:
as §1, §2, §3

Assay [4] concerns the target T5, FGFR1 D2 point mutant D88A (human, UniProt P11362 22-254).
T5 chain: T2 chain with A48K, D88A
Put plainly: SPR; free energy change relative to wild-type D2. On the procedure:
as §1, §2, §3

Another assay addresses T6, Human FGFR1 D2-His6 (human, UniProt P11362 22-254).
T6 construct: also called D2 domain; F3FR1c-D2
T6 sequence: T2 chain with A48K
The assay is described as follows: ELISA, antibody titrated on FGFR1 Ig-D2, O.D. 450 nm [panel FGFR1 Ig-D2].

For assay [5], the target named is T7, human FGFR1b-IIIb extracellular domain with a HIS tag (human).
T7 construct: also called huFGFR1b-IIIb; hFGFR1b-IIIb
T7 chain: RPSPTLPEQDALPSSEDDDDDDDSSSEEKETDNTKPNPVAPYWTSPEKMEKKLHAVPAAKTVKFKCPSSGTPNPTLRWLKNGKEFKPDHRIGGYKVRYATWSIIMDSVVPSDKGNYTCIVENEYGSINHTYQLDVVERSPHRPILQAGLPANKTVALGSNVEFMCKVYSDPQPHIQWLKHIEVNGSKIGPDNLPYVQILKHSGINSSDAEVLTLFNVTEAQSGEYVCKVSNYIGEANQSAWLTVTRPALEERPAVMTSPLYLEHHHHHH
Put plainly: ELISA, antibody titrated on huFGFR1b-IIIb, O.D. 450 nm [panel huFGFR1b-IIIb]. (In general: In an ELISA, binding on a coated surface is turned into a signal by an enzyme label.)

In assay [6] the target is T8, human FGFR1b-IIIc extracellular domain with a HIS tag (human, UniProt P11362 22-376).
T8 construct: also called huFGFR1b-IIIc; hFGFR1b-IIIc
T8 sequence: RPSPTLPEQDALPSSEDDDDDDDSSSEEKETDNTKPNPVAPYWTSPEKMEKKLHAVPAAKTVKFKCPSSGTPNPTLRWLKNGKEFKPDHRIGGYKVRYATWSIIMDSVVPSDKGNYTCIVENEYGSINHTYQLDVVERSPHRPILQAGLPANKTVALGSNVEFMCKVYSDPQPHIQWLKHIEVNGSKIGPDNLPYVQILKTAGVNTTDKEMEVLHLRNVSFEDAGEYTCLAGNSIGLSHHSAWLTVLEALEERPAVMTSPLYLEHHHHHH
The assay is described as follows: ELISA, antibody titrated on huFGFR1b-IIIc, O.D. 450 nm [panel huFGFR1b-IIIc].

Numbering of substitutions follows the chain as printed.

B1: mAb #A08 (antibody, V domains shown)
VH: EVQLQESGPGLVKPSGTLSLTCAVSGGSISSNNWWSWVRQPPGKGLEWIGEIYHSGSTSYNPSLKSRVTISVDKSKNQFSLKLNSVTAADTAVYYCARGTDWFDPWGQGTLVTVSS
VL: QAVLTQPPSVSVAPGQTARITCGGNNIGSESVHWYQQKPGQAPVLVVYDDSDRPSGIPERFSGSNSGNTATLTISRVEAGDEADYYCQVWDSTSDHRVFGGGTKLTVL
notes: Only variable domains are tied to the name mAb #A08 (hit); also called #A08 hit; mAb #08
As a reminder, the EC50 (read off the curve) is the midpoint of the concentration-response curve. A high value points to weaker potency. In the case of B1, in the assay with Human FGFR1-IIIc D3-His6, the binding result is “no binding”. The ΔΔGmut in assay [1] is -0.46 kcal/mol; in assay [2], 0.37 kcal/mol; in assay [3], 1.44 kcal/mol; in assay [4] it was -0.1 kcal/mol. In addition, the “EC50 (read off the curve)” value in the assay with Human FGFR1 D2-His6 was approximately 0.04 nM; in assay [5], approximately 0.03 nM; in assay [6], approximately 0.03 nM.

Source of the values: patent US20190367620A1 (Merck KGaA, published 2019).
